Data as given in patent publication CN114437215A (SHANGHAI MAIJI BIOTECHNOLOGY CO LTD, dated 2022).

T1: 人CD38胞外段Flag标签蛋白 hCD38-ECD-Flag (human, UniProt P28907 43-300)
T1 construct: range 43-300; No linker between CD38 and the tag is stated; also called hCD38-Flag
T1 sequence: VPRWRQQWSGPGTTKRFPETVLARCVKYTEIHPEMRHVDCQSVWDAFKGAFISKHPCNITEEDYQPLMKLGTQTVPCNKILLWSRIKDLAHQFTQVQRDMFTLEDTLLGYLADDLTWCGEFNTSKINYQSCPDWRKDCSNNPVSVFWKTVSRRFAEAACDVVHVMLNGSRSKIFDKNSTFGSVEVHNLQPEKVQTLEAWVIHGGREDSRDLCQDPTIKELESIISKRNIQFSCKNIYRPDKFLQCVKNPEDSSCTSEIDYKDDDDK

T2: 食蟹猴CD38胞外段Flag标签蛋白 cyno-CD38-ECD-Flag (cynomolgus monkey, UniProt Q5VAN0 44-301)
T2 construct: range 44-301; No linker between CD38 and the tag is stated; also called cyno-CD38-Flag
T2 sequence: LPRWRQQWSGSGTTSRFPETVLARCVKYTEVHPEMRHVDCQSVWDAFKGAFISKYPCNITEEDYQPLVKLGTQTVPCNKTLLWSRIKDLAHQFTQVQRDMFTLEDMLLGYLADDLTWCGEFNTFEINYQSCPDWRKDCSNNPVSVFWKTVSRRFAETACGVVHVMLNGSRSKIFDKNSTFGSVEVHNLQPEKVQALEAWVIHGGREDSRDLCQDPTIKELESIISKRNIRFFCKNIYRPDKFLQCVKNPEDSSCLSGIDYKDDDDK

B1: 人源化抗人CD38单克隆抗体145H (antibody, human IgG1, kappa, V domains shown)
VH: QVQLVQSGAEVKKPGASVKVSCKASGYTFTNYLIDWVRQAPGQGLEWIGLINPGSGSTKYNEKFKGRVTLTADKSTSTAYMELSSLRSEDTAVYYCAKTGTLPYWGQGTLVTVSS
VL: DIQMTQSPSSLSASVGDRVTITCKASQNVGTSVAWYQQKPGKAPKLLIYSTSYRSSGVPSRFSGSGSGTDFTLTISSLQPEDFATYYCQQYGSYPLTFGQGTKVEIKR
notes: also called 145号抗体的人源化抗体
B2: 人源化抗人CD38单克隆抗体57H (antibody, human IgG1, kappa, V domains shown)
VH: EVQLVESGGGLVQPGGSLRLSCAASGFTFSSFGMHWVRQAPGKGLEWVAYIGGDSNIIYYADTVKGRFTISRDNSKNTLYLQMNSLRAEDTAVYYCAKSHDYTMDYWGQGTLVTVSS
VL: DIVMTQSPSSLAVSLGERVTITCKSSQSLLYSTNQKNYLAWFQQKPGQSPKLLIYWASTRESGVPDRFSGSGSGTDFTLTISSLQAEDVAVYYCQRYYNYPYTFGQGTKVEIKR
notes: also called 57号抗体的人源化抗体
B3: 人源化抗人CD38单克隆抗体105H (antibody, human IgG1, kappa, V domains shown)
VH: QVQLVQSGAEVKKPGASVKVSCKASGYTFTSYWMHWVRQAPGQGLEWIGHINPSSGYSEYSQKFKDRATLTADKSTSTAYMELSSLRSEDTAVYYCEIYYYVSRYVGDSWGQGTLVTVSS
VL: DIQMTQSPSSLSASVGDRVTITCRASQEISGYLSWLQQKPGKTIKRLIYAASTLDSGVPSRFSGSRSGSDFTLTISSLQPEDFATYYCLQYDSYPLTFGQGTKVEIKR
notes: Humanized IgG1; also called 105-Humanization; 105号抗体的人源化抗体
B4: 人源化抗人CD38单克隆抗体116H (antibody, human IgG1, kappa, V domains shown)
VH: QVTLKESGPALVKPTQTLTLTCTLSGFSLSTSRMGVGWIRQPPGKGLEWLAHIWWDDDKRYNPALKSRLTISKDTSSNQVFLKIASVDKEDTATYYCGRIEVGRGAWFAYWGQGTLVTVSS
VL: EIVLTQSPATLSLSPGERVSVTCKASQDVVTTVAWYQQKPGQAPRTLIYSASYRYSGVPARFSGSGSGTDFTLTISSLEPEDFAVYYCQQYYTYPFTFGQGTKVEIKR
notes: also called 116号抗体的人源化抗体

What follows are binders tested against T1, 人CD38胞外段Flag标签蛋白 hCD38-ECD-Flag (assay: SPR, Biacore T200; antibody captured on Protein A CM5 chip, hCD38-Flag as analyte).

Row | Kd [nM] | koff [s⁻¹] | kon [M⁻¹ s⁻¹] | Binder
1 | 3.22 | 0.00198 | 612000 | B1
2 | 0.382 | 0.000101 | 264000 | B2
3 | 32.8 | 0.000975 | 29800 | B3
4 | 0.065 | 9.53e-05 | 1.47e+06 | B4

The binders below were run against T2, 食蟹猴CD38胞外段Flag标签蛋白 cyno-CD38-ECD-Flag (assay: SPR, Biacore T200; antibody captured on Protein A CM5 chip, cyno-CD38-Flag as analyte).

Row | Kd [nM] | koff [s⁻¹] | kon [M⁻¹ s⁻¹] | Binder
5 | 40.2 | 0.00393 | 97800 | B1
6 | 1.68 | 9.2e-05 | 54900 | B2
7 | 3.4 | 0.000208 | 61100 | B3
8 | 0.405 | 0.000102 | 251000 | B4
